Experimental data: patent publication US20080201790A1, “Method and product for regulating cell responsiveness to external signals” (priority 1993, published 2008)

Assays:
[1] = tested on: p42 and p44 forms of MAPK; assay: Phosphorylation of p42 and p44 MAPK in COS cells transfected with MEKK 1 or MEKK 3; assay type: cell-based; settings: forty-eight hours after transfection
Method: (§1) COS cells were transfected with the expression plasmid pCVM5 ligated to cDNA clones encoding either MEKK 1 or MEKK 3 protein, or a control pCVM5 plasmid lacking MEKK cDNA inserts. Forty-eight hours after transfection, the COS cells were lysed and the lysate fractionated on a Mono Q FPLC column using conditions described in Example 4. The fractions were analyzed for tyrosine phosphorylation of MAP kinase-like enzymes using the kinase assay described in Example 4.

MAPK = MAPK activity in COS cells transfected with MEKK or Raf (Mono Q FPLC fractions); assay type: cell-based; settings: overexpression in COS1 cells, deprived of serum, no added growth factor
Method: COS cells in 100-mm culture dishes were transfected with either the pCVMV5 expression vector alone (1 μg: control) or the pCVMV5 MEKK construct (1 μg: MEKK). After 48 hours, the cells were placed in serum-free medium containing bovine serum albumin (0.1 percent) for 16 to 18 hours to induce quiescence. […] After centrifugation for 10 minutes at maximum speed in a microfuge, COS cell lysates containing 0.5 to 1 mg of soluble protein were subjected to FPLC on a MONO Q column, and eluted fractions were assayed for MAPK activity according to the method described in Heasley et al., p. 545, 1992, Mol. Biol. Cell, Vol. 3.
COS cells were prepared using the method described in Example 3. […] FPLC MONO Q ion-exchange column fractions were prepared as described in Example 3 and assayed for MAPK activity according to the method described in Heasley et al., ibid.

MEK-1 = assay: Phosphorylation of catalytically inactive MEK-1 by Mono Q fractions of MEKK-transfected COS cells; assay type: biochemical, mouse
Method: A cDNA encoding MEK-1 was obtained from mouse B cell cDNA templates with the polymerase chain reaction and oligodeoxynucleotide primers corresponding to portions of the 5′ coding region and 3′ untranslated region of MEK-1. […] Lysates from COS cells transfected with MEKK or mock-transfected (control) were subjected to FPLC on a Mono Q column as described above. […] Reactions were stopped by the addition of 5×SDS sample buffer (10 μl), 1×SDS buffer contains 2 percent SDS, 5 percent glycerol, 62.5 mM tris-HCl (pH 6.8), 5 percent β-mercaptoethanol, and 0.001 percent bromophenol blue. The samples were boiled for 3 minutes and subjected to SDS-PAGE and autoradiography.
Phosphorylation of kinase MEK-1 and MEKK was visable after 5 minutes and maximal after about 20 minutes. The time-dependent increase in MEKK phosphorylation correlated with a decreased mobility of the MEKK protein during SDS-PAGE. […] The slowly migrating species of MEKK were also detected by immunoblotting. Thus, expression of MEKK appears to activate MAPK by activating MEK.

p38 MAPK = assay: Tyrosine phosphorylation of p38 MAPK in COS cells transfected with MEKK 1 or MEKK 3; assay type: cell-based; settings: forty-eight hours after transfection
Method: as §1

GST-Ras^V12 = assay: Binding of COS cell-expressed MEKK1 proteins to GST-Ras^V12 agarose; settings: COS cell lysates, immunoblot
Source text: COS cells were transiently transfected by the DEAE-dextran protocol as generally described in Example 3. Cos cells were transfected with: (1) p-MEKK1 containing a nucleic acid molecule encoding MEKK1 as described in Lange-Carter et al. (Science 260:315-319, […]); (2) p-MEKKNH2 containing a nucleic acid molecule that encodes a 858 base pair Pvull(682)-Ncol(1541) restriction digest fragment of the amino terminus of MEKK1 ligated into pCMV5; (3) p-MEKKCOOH containing a nucleic acid molecule that encodes a 1435 base pair Ncol(1541)-Sspl(2976) restriction digest fragment that includes the entire kinase domain of MEKK1 ligated into pCMV5; (4) pCMV5 without insert; or (5) p-C4Raf containing a nucleic acid molecule that encodes the amino terminus of Raf-1 ligated into pCMV5. COS cells expressing the various MEKK1 proteins were […] COS cells expressing the various MEKK1 proteins were lysed in EB (1% Triton X-100, 10 mM Tris HCl [pH 7.4], 5 mM EDTA, 50 mM NaCl, 50 mM NaF, 0.1% bovine serum albumin, 0.2 U/ml aprotinin, 1 mM phenylmethylsulfonyl fluoride and 2 mM Na3 VO4). The lysates were separated into two equal parts for separate binding reactions. Half of the lysate was incubated with GST agarose (1.5 μg) while half of the lysate was incubated with GST-Ras^V12 agarose (1.5 μg) (purchased from UBI) for 1 hr at 4° C. The GST-Ras^V12 was preincubated at 30° C. for 30 min with 1 mM nucleotide (GDP or GTPγS). The nucleotide binding reaction was stopped by adding MgCl2 to a final concentration of 20 mM. After the 1 hr binding reaction the agarose beads were pelleted at 2000 rpm for 2 min and washed 3 times with PBS+1.0% Triton X-100. The washed agarose beads were boiled in Laemmli SDS sample buffer and the proteins resolved by SDS polyacrylamide gel electrophoresis. Proteins were transferred onto nitrocellulose for immunoblotting with antibodies specific for an NH2 terminal fusion protein (described in Example 1) or a COOH terminal peptide (described in Example 1).

[2] = fraction 22, 0.15 μg catalytically inactive MEK-1

B1: MEKK 1: MEK kinase 1 protein, SEQ ID No. 2 / 4 (protein)
chain: MVTAVPAVFSKLVTMLNASGSTHFTRMRRRLMAIADEVEIAEVIQLGVEDTVDGHQDSLQAVAPTSCLENSSLEHTVHREKTGKGLSATRLSASSEDISDRLAGVSVGLPSSTTTEQPKPAVQTKGRPHSQCLNSSPLSHAQLMFPAPSAPCSSAPSVPDISKHRPQAFVPCKIPSASPQTQRKFSLQFQRNCSEHRDSDQLSPVFTQSRPPPSSNIHRPKPSRPVPGSTSKLGDATKSSMTLDLGSASRCDDSFGGGGNSGNAVIPSDETVFTPVEDKCRLDVNTELNSSIEDLLEASMPSSDTTVTFKSEVAVLSPEKAENDDTYKDDVNHNQKCKEKMEAEEEEALAIAMAMSASQDALPIVPQLQVENGEDIIIIQQDTPETLPGHTKAKQPYREDAEWLKGQQIGLGAFSSCYQAQDVGTGTLMAVKQVTYVRNTSSEQEEVVEALREEIRMMGHLNHPNIIRMLGATCEKSNYNLFIEWMAGGSVAHLLSKYGAFKESVVINYTEQLLRGLSYLHENQIIHRDVKGANLLIDSTGQRLRIADFGAAARLASKGTGAGEFQGQLLGTIAFMAPEVLRGQQYGRSCDVWSVGCAIIEMACAKPPWNAEKHSNHLALIFKIASATTAPSIPSHLSPGLRDVAVRCLELQPQDRPPSRELLKHPVFRTTW
phosphorylation of p42 and p44 MAPK [1]: does induce phosphorylation of p42 and p44 MAPK | MAPK activity relative to control cells transfected with plasmid lacking a MEKK 1 cDNA insert (MAPK): four to five times greater | phosphorylation of MEK-1 (MEK-1; Mono Q fractions of transfected COS cells): capable of phosphorylating MEK-1 | time at which phosphorylation of kinase MEK-1 and MEKK was visible (MEK-1; [2]): 5 min | time of maximal phosphorylation of kinase MEK-1 and MEKK (MEK-1; [2]): about 20 minutes | phosphorylation of p38 MAPK (p38 MAPK): only induces weak phosphorylation of p38 MAPK | binding to GST-Ras^V12(GTPγS) relative to GST-Ras^V12(GDP) (GST-Ras^V12): at least 5 fold | binding to GST-Ras^V12 (in words) (GST-Ras^V12): capable of binding GST-Ras^V12 in a GTP dependent manner
